Results as given in article PMC3988174.

B1: MPBQ/MSBQ methyl transferase (natural protein)
chain: MASLMLNGAITFPKGLGSPGSNLHARSIPRPTLLSVTRTSTPRLSVATRCSSSSVSSSRPSAQPRFIQHKKEAYWFYRFLSIVYDHVINPGHWTEDMRDDALEPADLSHPDMRVVDVGGGTGFTTLGIVKTVKAKNVTILDQSPHQLAKAKQKEPLKECKIVEGDAEDLPFPTDYADRYVSAGSIEYWPDPQRGIREAYRVLKIGGKACLIGPVYPTFWLSRFFSDVWMLFPKEEEYIEWFKNAGFKDVQLKRIGPKWYRGVRRHGLIMGCSVTGVKPASGDSPLQLGPKEEDVEKPVNNPFSFLGRFLLGTLAAAWFVLIPIYMWIKDQIVPKDQPI
B2: Photosystem II subunit T (natural protein)
chain: MASMTMTATFFPAVAKVPSATGGRRLSVVRASTSDNTPSLEVKEQSSTTMRRDLMFTAAAAAVCSLAKVAMAEEEEPKRGTEAAKKKYAQVCVTMPTAKICRY
B3: Lactoylglutathionelyase (natural protein)
chain: MASEARESPANNPGLSTNRDEATKGYIMQQTMFRIKDPKASLDFYSRVLGMSLLKRLDFSEMKFSLYFLGYEDTTTAPTDPTERTVWTFGQPATIELTHNWGTESDPEFKGYHNGNSEPRGFGHIGVTVDDVHKACERFEELGVEFAKKPNDGKMKNIAFIKDPDGYWIEIFDLKTIGTTTVNAA
B4: Tryptophan synthase, beta subunit 1 (natural protein)
chain: MAASGTSATFRASVSSAPSSSSQLTHLKSPFKAVKYTPLPSSRSKSSSFSVSCTIAKDPPVLMAAGSDPALWQRPDSFGRFGKFGGKYVPETLMHALSELESAFYALATDDDFQRELAGILKDYVGRESPLYFAERLTEHYRRENGEGPLIYLKREDLNHTGAHKINNAVAQALLAKRLGKKRIIAETGAGQHGVATATVCARFGLECIIYMGAQDMERQALNVFRMRLLGAEVRGVHSGTATLKDATSEAIRDWVTNVETTHYILGSVAGPHPYPMMVRDFHAVIGKETRKQALEKWGGKPDVLVACVGGGSNAMGLFHEFVNDTEVRMIGVEAAGFGLDSGKHAATLTKGDVGVLHGAMSYLLQDDDGQIIEPHSISAGLDYPGVGPEHSFFKDMGRAEYYSITDEEALEAFKRVSRLEGIIPALETSHALAYLEKLCPTLSDGTRVVLNFSGRGDKDVQTVAKYLDV
B5: Sugar transporter EDR6-like 7 (natural protein)
chain: MSKASDAVREPLVDKNMAGSKPDQPWMVYLSTFVAVCGSFAFGSCAGYSSPAQAAIRNDLSLTIAEFSLFGSLLTFGAMIGAITSGPIADLVGRKGAMRVSSAFCVVGWLAIIFAKGVVALDLGRLATGYGMGAFSYVVPIFIAEIAPKTFRGALTTLNQILICTGVSVSFIIGTLVTWRVLALIGIIPCAASFLGLFFIPESPRWLAKVGRDTEFEAALRKLRGKKADISEEAAEIQDYIETLERLPKAKMLDLFQRRYIRSVLIAFGLMVFQQFGGINGICFYTSSIFEQAGFPTRLGMIIYAVLQVVITALNAPIVDRAGRKPLLLVSATGLVIGCLIAAVSFYLKVHDMAHEAVPVLAVVGIMVYIGSFSAGMGAMPWVVMSEIFPINIKGVAGGMATLVNWFGAWAVSYTFNFLMSWSSYGTFLIYAAINALAIVFVIAIVPETKGKTLEQIQAIVNP
B6: Geranylgeranyl reductase (natural protein)
chain: MLFSGSAIPLSSFCSLPEKPHTLPMKLSPAAIRSSSSSAPGSLNFDLRTYWTTLITEINQKLDEAIPVKHPAGIYEAMRYSVLAQGAKRAPPVMCVAACELFGGDRLAAFPTACALEMVHAASLIHDDLPCMDDDPVRRGKPSNHTVYGSGMAILAGDALFPLAFQHIVSHTPPDLVPRATILRLITEIARTVGSTGMAAGQYVDLEGGPFPLSFVQEKKFGAMGECSAVCGGLLGGATEDELQSLRRYGRAVGMLYQVVDDITEDKKKSYDGGAEKGMMEMAEELKEKAKKELQVFDNKYGGGDTLVPLYTFVDYAAHRHFLLPL
B7: Oxygen-evolving enhancer protein 3-2 (natural protein)
chain: MAQAVTSMAGLRGASQAVLEGSLQINGSNRLNISRVSVGSQRTGLVIRAQQNVSVPESSRRSVIGLVAAGLAGGSFVKAVFAEAIPIKVGGPPLPSGGLPGTDNSDQARDFSLALKDRFYIQPLSPTEAAARAKDSAKEIINVKSFIDKKAWPYVQNDLRLRASYLRYDLNTVISAKPKEEKQSLKDLTAKLFQTIDNLDYAARSKSSPDAEKYYSETVSSLNNVLAKLG
B8: Small GTP-binding protein (natural protein)
chain: MAMASAMDLSSPPTFFLSGTSTSSPSLRRLSSISVSGFRRHSNRKLQILCQATAGTEPQSGLSVSGSKLAARSGQDRLLKVPISNIRNFSIIAHIDHGKSTLADKLLQVTGTVQNRDMKEQFLDNMDLERERGITIKLQAARMRYVYEDTPFCLNLIDTPGHVDFSYEVSRSLAACEGALLVVDASQGVEAQTLANVYLALENNLEIIPVLNKIDLPGAEPEKVLREIEEVIGLDCSKAIFCSAKEGIGITEILDAIVQRIPAPLDTAGKPLRALIFDSYYDPYRGVIVYFRVIDGKVKKGDRIFFMASGKDYFADEVGVLSPNQIQVDELYAGEVGYIAASVRSVADARVGDTITHYSRKAESSLPGYEEATPMVFCGLFPVDADQFPDLRDALEKLQLNDAALKFEPETSSAMGFGFRCGFLGLLHMEIVQERLEREYNLNLITTAPSVVYRVNSVNGDTTLCSNPSRLPDPGQRKSVEEPYVKIELLTPKDYIGALMELAQERRGEFKEMKYIAENRASILYELPLAEMVGDFFDQLKSRTKGYASMEYSVIGYRESDLIKLDILINAEMVEPLSTIVHRDKAYSVGRALTQKLKELIPRQMFKVPIQACIGSKVIASEALSAIRKDVLAKCYGGDISRKKKLLKKQAAGKKRMKAIGRVDVPQEAFMAVLKLEREVL
B9: Putative 3-dehydroquinate synthase (natural protein)
chain: MAANTISLSNVAASKNLNSFQSRAFIAPPTIFFPVASAKSKPGELSLSSTTLSRSRVRAGASQLMNEPLNDQRSISSPTVVEVDLGDRSYPIYIGAGLLDHSELLQRHVHGKRVLVVTNDRVAPLYLDKTIDALTRGNPNVTVESVILPDGEKYKDMDTLMKVFDKAIESRLDRRCTFVALGGGVIGDMCGYAAASYLRGVNFIQIPTTVMAQVDSSVGGKTGINHRLGKNLIGAFYQPQCVLVDTDTLNTLPDREMASGLAEVIKYGLIRDAEFFEWQEKNIEALLARDPAALAFAIKRSCENKADVVSQDEKESGLRATLNLGHTFGHAIETGFGYGEWLHGEAVAAGTVMAVDMSYRLGWIDESIVKRVNKILVRAKLPTTPPESMTVSMFKSIMAVDKKVADGLLRLILLKGPLGNCVFTGDYDREALDATLRAFSKS
B10: Glutathione S-transferase PHI 2 (natural protein)
chain: MAGIKVFGHPASIATRRVLIALHEKNLDFELVHVELKDGEHKKEPFLSRNPFGQVPAFEDGDLKLFESRAITQYIAHRYENQGTNLLQTDSKNISQYAIMAIGMQVEDHQFDPVASKLAFEQIFKSIYGLTTDEAVVAEEEAKLAKVLDVYEARLKEFKYLAGETFTLTDLHHIPAIQYLLGTPTKKLFTERPRVNEWVAEITKRPASEKVQ
B11: Chloroplast chaperonin 10 (natural protein)
chain: MASTFVCSLPNPFFAFPVKATTPSTANHTLLGSRRGCLRIKAISTKWEPTKVVPQADRVLVRLEDLPIKSSGGVLLPKAAVKFERYLTGEIISVGSEVGQQVGPGKRVLFSDVSAYEVDLGTDARHCFCKESDLLALVE
B12: Translationally controlled tumor protein (natural protein)
chain: MLVYQDLLTGDELLSDSFPYKEIENGILWEVEGKWVTVGAVDVNIGANPSAEEGGEDEGVDDSTQKVVDIVDTFRLQEQPTYDKKGFIAYIKKYIKLLTPKLSEEDQAVFKKGIEGATKFLLPRLSDFQFFVGEGMHDDSTLVFAYYKEGSTNPTFLYFAHGLKEVKC
B13: GLNB1-like protein (natural protein)
chain: MAASMTKPISITSLGFYSDRKNIAFSDCISICSGFRHSRPSCLDLVTKSPSNNSRVLPVVSAQISSDYIPDSKFYKVEAIVRPWRIQQVSSALLKIGIRGVTVSDVRGFGAQGGSTERHGGSEFSEDKFVAKVKMEIVVKKDQVESVINTIIEGARTGEIGDGKIFVLPVSDVIRVRTGERGEKAEKMTGDMLSPS
B14: Protein LURP-one-related 15 Protein (natural protein)
chain: MEQPYVYAYPQGSGPSGAPTPQAGGVVVDPKYCAPYPIDMAIVRKMMSLTDGNFVITDVNGNLLFKVKEPVFGLHDKRVLLDGSGTPVVTLREKMVSMHDRWQVFRGGSTDQRDLLYTVKRSSMLQLKTKLDVFLGHNKDEKRCDFRVKGSWLERSCVVYAGESDAIVAQMHRKHTVQSVFLGKDNFSVTVYPNVDYAFIASLVVILDDVNREDRAA
B15: CCR-like protein (natural protein)
chain: MQGALFIKPTILLPLPSSVSSPKLTFLLPHATKASRLSSLRSNNSSSSSSLTSDPNTVDYNSSILSVFPAEACEVISGYACSADIYPEVKLDTKPVSRPVASEPVDREYEEYNSPKTVFREEACDDLGGEFCEPDFQKDAN
B16: Fe superoxide dismutase 1 (natural protein)
chain: MAASSAVTANYVLKPPPFALDALEPHMSKQTLEFHWGKHHRAYVDNLKKQVLGTELEGKPLEHIIHSTYNNGDLLPAFNNAAQAWNHEFFWESMKPGGGGKPSGELLALLERDFTSYEKFYEEFNAAAATQFGAGWAWLAYSNEKLKVVKTPNAVNPLVLGSFPLLTIDVWEHAYYLDFQNRRPDYIKTFMTNLVSWEAVSARLEAAKAASA
B17: 5′-Adenylylsulfate reductase 2 (natural protein)
chain: MALAVTSSSTAISGSSFSRSGASSESKALQICSIRLSDRTHLSQRRYSMKPLNAESHSRSESWVTRASTLIAPEVEEKGGEVEDFEQLAKKLEDASPLEIMDKALERFGDQIAIAFSGAEDVALIEYARLTGKPFRVFSLDTGRLNPETYRLFDAVEKQYGIRIEYMFPDAVEVQALVRNKGLFSFYEDGHQECCRVRKVRPLRRALKGLKAWITGQRKDQSPGTRSEIPIVQVDPVFEGLDGGVGSLVKWNPLANVEGADVWNFLRTMDVPVNALHAQGYVSIGCEPCTRPVLPGQHEREGRWWWEDAKAKECGLHKGNIKEEDGAADSKPAAVQEIFESNNVVALSKGGVENLLKLENRKEAWLVVLYAPWCPFCQAMEASYIELAEKLAGKGVKVAKFRADGEQKEFAKQELQLGSFPTILLFPKRAPRAIKYPSEHRDVDSLMSFVNLLR

Target: atToc132 G-domain bait (Arabidopsis thaliana) (UniProt Q9SLF3)
Sequence (Q9SLF3 456-794): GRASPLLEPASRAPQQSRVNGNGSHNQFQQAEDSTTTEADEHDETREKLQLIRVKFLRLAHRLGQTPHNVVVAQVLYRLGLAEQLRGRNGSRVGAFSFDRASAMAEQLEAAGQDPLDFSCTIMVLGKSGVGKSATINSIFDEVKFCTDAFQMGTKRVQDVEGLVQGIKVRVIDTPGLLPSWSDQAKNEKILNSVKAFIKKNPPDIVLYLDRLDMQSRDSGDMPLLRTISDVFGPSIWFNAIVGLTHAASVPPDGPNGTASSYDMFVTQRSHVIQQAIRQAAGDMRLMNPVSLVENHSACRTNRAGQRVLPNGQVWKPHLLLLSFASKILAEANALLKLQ
Test: two-hybrid; pairwise split-ubiquitin yeast two-hybrid of isolated NubG-preys with Toc159G, Toc132G or Toc132AG bait in NMY51; growth on SD-LWHA (3-AT) and quantitative β-Gal assay, activity relative to a reference bait set to 100%

% increase in strength of interaction (β-Gal) with 132G against 159G [%] | Binder
30.7 | B1
28.9 | B2
91.5 | B3
19.6 | B4
49.3 | B5
88 | B6
20 | B7
41.1 | B8
27.8 | B9
52 | B10
42.1 | B11
41 | B12
39.8 | B13
29.9 | B14
74.4 | B15
99.5 | B16
44.7 | B17
